{"source": "the NTF2 design screens of Basanta et al. (2020)", "data": [{"test": "protease stability score; higher = more stable; yeast display proteolysis, trypsin and chymotrypsin;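 further: log10 excess protease needed over predicted unfolded state with 0 meaning unfolded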", "values": [{"sequence": "DEKEHATEWLEDWQQQLRTGDEKSVANLFDPNARLNVGDKEVHGREDFEKEQKKIREEADHVDVEIVDLKTSPGHIQMFFNLRQTHNGQRQSHREVMVLRLQGDEVRVVKVEHN", "protease stability score": -0.056}, {"sequence": "DEKEHEDVAQEAVHAVQSGDPKQMVEMADPNARVVVGDKTLHGHDRIEEMVKHLRKRADHVRIIDVQVQGDKVVIRFQVVVDGRTYDVYIDLRVHNGEAKEIRFDPRRQKEMHG", "protease stability score": 0.758}, {"sequence": "DEKEIHEIAETFVEVLRNGNHDDLKELMDENVKLVYGDKELQGHHRAASHLAELVSRVDHMSVDSITVNGDSVKVIMQFVVNGVTAHITIIIKMTNGRIKELEIRYTNEDQRRQVDK", "protease stability score": 0.941}, {"sequence": "DEKEIQKLLEQLMKMFVNGNDEQIKKLGKDDVEATYMDEKVTGPDKVVELVKKYMDLGVKVEYKEEHVEGDKATAKVEADAGGQTVRFHVHYKATGRKMDRVEVQYDETAKKVIKHG", "protease stability score": -0.131}, {"sequence": "DEKEIRKLLETMLKAFVNGNLEVVRKMLKDDGEVEYLDTRRHGPDRAVELVKRLLDLGYEVEYKEVHVKGDTVTANVEANADGKTVRFQVTYQARGRRVDNFKVKYDEDAQKVIKHG", "protease stability score": 1.79}, {"sequence": "DEKEIRKLLQKMAKMFEEGNNEELRKLGDDDLQVTYGDEEYKGPDDLVKVLETVKKLGAKVEYKEVHVEGDTVTVKVEAEMGGRKARYKVKYQADGNKVKRFQVEYSEDAQKAIKEG", "protease stability score": 1.28}, {"sequence": "DEKEKAEDFMRKMQKIAKTNNPTELDDQFDEDAKLVVGDKRYHGRKQMQKHYKELRKRVDHFRLEVKRIDVSGDKVRFDAKYEADVNGRRETVDMRFVVRRVGDKDRAENAQWK", "protease stability score": 0.285}, {"sequence": "DEKEKAKKMFEKWHDVWRTNDPKKMNELADKDARINVGEKNYHGREHVEKIWRDLMERIDHVQLRVQTITSTGDKVEIRATVVIDHNGKQDEDTYVYVFQIDNGTVSFVQVRQS", "protease stability score": 0.576}, {"sequence": "DEKEKLKQLARKFHKAMQTGDEDELKKNVDENVRADYGDRRYHGSEELAKWLREMKTKVDHLSMTIKDIRVKGDRAEIELEMTFDHNGRQETRQFTLQAQVHNGSLKIVQIRQS", "protease stability score": 1.32}, {"sequence": "DEKELKKVLERLVKAFKNGNTEEAKKLGKDDVQVEYGDEKYEGPDAMRTVLERVKKLGYEVEYKEEHYKGDTVTVKVEANLGGRTAKFRFQYQVQGQRVDKVKVEYSETAQKQIKHG", "protease stability score": -0.106}, {"sequence": "DEKELKKVLKTVVEYLKNGKAERVVKHLHDDVQVIYDDEEVHGADKFKEMVEKFQKLGYKVEYKEVHVEGDTATVKVQVDAGGETAEFHVTYQATGQKVDRMEVKYDERAQKVIKHG", "protease stability score": 1.14}, {"sequence": "DEKELNDLKRVVRHGDEDRLEELMDEDVRMKVGNKEISGRSHAVKVMKKLNEKADHIEIKDIKISGEKVVVDLVFEVNGTKIKMRLIIVVRNGKIKHAQIEVTDEEVEDNLHKFLD", "protease stability score": 0.972}, {"sequence": "DEKELQKVLQKVMKLFQNGNIEELQKVVKDDVQLRYADKEYHGPDAVKTVVKRYRDLGAKVEYDELHVEGDKATAKVRADYGGTTVRMKVTYKVTGQKVDRMQVKYDEKAQKQIKHG", "protease stability score": -0.142}, {"sequence": "DEKEMQEFAKEVVKMLQTGDERKNERNVDKDVRVKIGEKVLHGREDNSKWIQEWRDRVDHIRIDHVHVHGEKVIVTVTAVVNGVEVEFQMVMEVHNGRAENVQVKYRNPDELRRFKS", "protease stability score": -0.263}, {"sequence": "DEKENKKLATELNQNLQTGDPDKLARLADPNARAQYGETTYHGRSQIKTMWETLSRQVDNVELKHMHVQGNEVEVVLTFNVNGKEYELRITASFKNGRLKDLQIDPDEIQRAEK", "protease stability score": 0.4}, {"sequence": "DEKEQADDAVRQLESAFNQGDWKKLADLFDENARVQYGDKELHGRQKWTTLVRDMEREHDHVEARVKSVHYHNGKIHLKIEIKAETNGRTTSVHVRYVAVVTNGRVEFENAKYS", "protease stability score": 0.973}, {"sequence": "DEKEQEDFARSFIEAFRTNDPSQIKTLMDEEATVSVGDKTYHGRKAAEDWATQLKEEVDHIDVKDLKVHNGHIEIEVRLKVNGHTRDYLISIQFHNGRVKRMSVSKQ", "protease stability score": -0.432}, {"sequence": "DEKEQEVLDRFMRALRTGNPDDADKNVDKDVNVRYGDRTIKGRESFHEEIRREHQEIRLDYRSVNNQVHNGQANVDVDAIWNVNGRPHRVKVHIRAQIHDGRIKHQRFRMDPEEKKRVDS", "protease stability score": 0.054}, {"sequence": "DEKEQKENAKKMADAIERGDPDKLSELMDENAKVTVGDKTIHGRRQAHEWLKEFRDQADHVEIKEFTVNGNRVIIHVKVRHNGSESERVMTVSWHNGKVKSASFRSN", "protease stability score": 0.63}, {"sequence": "DEKEQTDILLRAMQILTHGDEKRFEELADPNVHVDVGDKTVHGRTQARKWYHDLRRQVDRIHIKHVTVKNGRATIDVVFDRNGRKEKMVLVIQAHNGKIKRAKVEES", "protease stability score": -0.125}, {"sequence": "DEKESADRMIQRLQELMDQNNEEEIKNEVDENARAVVGDKEYHGDEQFAKALITVVKQYDHISIQIRSFTHTNGKNVATFEATFHHNGKNDTVKIEVVFDEVNGRHNLVRLVMK", "protease stability score": 1.22}, {"sequence": "DEKETHKVLEKIEKVLHNFNIDEAKKVLKDDVRVQYLDEEYHGPDAAEKRLTKVKKLGAQVEYKEAHVEGNRVKAKVQVNVGGRTLEFTVEYTAKGHKVDEFRVQYDEDAQKTIKHG", "protease stability score": 0.76}, {"sequence": "DEKETKKVLEQAAKLFVNGDVHRVMQLGADDVEVEYGDERYHGKDAAKRVIEKHQKLGIKVEYDELHVEGDRVKAKVRADQAGTTAHFTFEYKATGQRVDKMRVKYDETAQKMIKHG", "protease stability score": -0.23}, {"sequence": "DEKETKKVLERIVKIFENGNAEEAKKMGKEDVEVEYGDETKHGPDALYEFIEKMKKLGAKVEYKEVHVEGDKVTVRIQADYGGRRAEMHVTYQATGNRVDNVKLKYSKTAQEMIKHG", "protease stability score": 0.084}, {"sequence": "DEKETQKLLEKLAKYFVNGDLEKVKKVGKEDVEVEYGSERKHGPDAMKEHVETHKRLGIEVRYEEVHVEGDTVTAKVQADVAGHTAEMTVVYQAQGRRVDKVKLKYSEKAQKAIKHG", "protease stability score": -0.133}, {"sequence": "DEKETRKLLKDVAEAFENGNNEEIKKLLKDDVEVQYADKRVHGPDQVVEMVKKYQDLGAKVEYKKLDVRGDTVTVDVQADLGGRTAEFKVTYQAQGQKVDRFKVKYDETAKKLIKHG", "protease stability score": 0.22}, {"sequence": "DEKEVATRFVKTVVEILRRGNPDDWMKLVDPNATAHYGDKTYHGREELKTLMEDRNRHADRIDVDVKSYDAHNGKVQVHVVVVQTHNGRSTTHEVRIVADLHNGDAKIRSIQEQ", "protease stability score": 0.713}, {"sequence": "DEKEVKDADKEMERLMKKNDFQHIVDQMDPNAKIIVGDQDLHGKEEAEKVAQEMDKQIDSIEVKSVHAHGDKAVVHFVNHHNGRNKRVVITLRWSNGRIQEMQIQDQ", "protease stability score": -0.157}, {"sequence": "DEKEVKDNAHDLFRAMQTGDEQEIENLMDENVEAQVGDTTWHGREEAARELVLTQKRYDRVRVDRIQVTGEDVKIDFKLNIDGTKETHILVMRVHNGKIVSMSNETR", "protease stability score": 1.51}, {"sequence": "DEKEVQKVLETMAKMFVNGNNEEVKKLGHDDIQVQYGDEEKHGPDAMVDFIKKYQDLGAEVEYKHLKVEGNEVEVDVEATLGGKTVRYKVKYEATGHKVHRVEVKYTDEAKDAIKKG", "protease stability score": 0.657}, {"sequence": "DEKEYAEQFFRHMEEIYQNGDEDRAQELFDPNARMEVGDKEVHGNEKFREEIHKIKETSDRFSIRVKEIDVHGDKIVVEAERSFEHNGQRRSEVYTVRMVIENGQAKIKSAHHK", "protease stability score": 0.235}, {"sequence": "DEKFKEAVERFIKALQDNNHKEMKDNADPNVKAQVGDSEVHGMDEMLRQLYKRYQELRVSYKHLSITVRGDKVEIRASVKLVHNGTPTEREVSVEVEAKNGRIKSMRINNTK", "protease stability score": 0.493}, {"sequence": "DEKHAHKIVRAWSQGDPDQLAELADPNVRLVVGDKTYDGRESFVKWLKDLRKRIDHVRVDSVKINGNKIEIDMRFQVDGVHLVVTVDIEFKNGKIKDVRIQYRDEEQLKDIKKVVR", "protease stability score": 1.2}, {"sequence": "DEKHAQHAAEIAEQGDPDEWEELADKDVKVDIGDQRVHGREQASSFWRKLREQADTIEYKSYRVDNGRVQLDFVVDINGHRLEFTLRFVVDNGRITEMEVQARDERQNEELKKIDS", "protease stability score": 0.524}, {"sequence": "DEKHDAKRVWETILNQLRRGDSEEFMKLADKDVKIEYGDKTIHGREDLKSWMNERQKDYDHLDADLTHMDVQGEDVNVTYTDRAKHNGTEHHRTVQAVFRVHNGRLRLQSWYHS", "protease stability score": 0.494}, {"sequence": "DEKHLERQVDHFLDALHRGDEDEAVNLADPDVEFQVGDRTYHGKEQLKEWLKRLVDRVDHVDIKNITVSGDKVEVHADFSVDGRKETMTFTVRAHNGRIKHMTIDKG", "protease stability score": 1.27}]}]}
